Source: publication PMC6189472

Tests used:
[1] = target: TCR/CD3 complex (human (endogenous in Jurkat)) (UniProt P07766); experiment: FRAP on micropatterned antibody spots; CD6-GFP Jurkat T cells on spots of 100, 10 or 1% anti-CD3 surrounded by fibronectin; 37 C; circular ROI of 2.1 um on spots and on surrounding fibronectin; single exponential fit
[2] = target: TCR/CD3 complex (human (endogenous in Jurkat)) (UniProt P07766); experiment: recruitment to antibody-coated beads (confocal microscopy); CD6-GFP Jurkat T cells on fibronectin-coated coverslips with 4.5 um anti-CD3-coated (Dynal CD3) or fibronectin-coated beads; live cells at RT; CD6-GFP intensity at bead contact against the opposite side of the cell

Chain of UniProt P07766 (P07766 whole entry, looked up, one chain of several): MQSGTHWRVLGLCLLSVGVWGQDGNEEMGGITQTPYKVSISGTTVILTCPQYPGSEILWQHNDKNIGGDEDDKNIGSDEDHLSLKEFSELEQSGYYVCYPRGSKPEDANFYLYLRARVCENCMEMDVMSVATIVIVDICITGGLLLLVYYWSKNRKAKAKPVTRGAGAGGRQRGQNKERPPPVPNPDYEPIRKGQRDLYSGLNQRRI

B1: CD6-GFP (receptor)
chain: HPSPAPPDQLNTSSAESELWEPGERLPVRLTNGSSSCSGTVEVRLEASWEPACGALWDSRAAEAVCRALGCGGAEAASQLAPPTPELPPPPAAGNTSVAANATLAGAPALLCSGAEWRLCEVVEHACRSDGRRARVTCAENRALRLVDGGGACAGRVEMLEHGEWGSVCDDTWDLEDAHVVCRQLGCGWAVQALPGLHFTPGRGPIHRDQVNCSGAEAYLWDCPGLPGQHYCGHKEDAGAVCSEHQSWRLTGGADRCEGQVEVHFRGVWNTVCDSEWYPSEAKVLCQSLGCGTAVERPKGLPHSLSGRMYYSCNGEELTLSNCSWRFNNSNLCSQSLAARVLCSASRSLHNLSTPEVPASVQTVTIESSVTVKIENKESRELMLLIPSIVLGILLLGSLIFIAFILLRIKGKYALPVMVNHQHLPTTIPAGSNSYQPVPITIPKEVFMLPIQVQAPPPEDSDSGSDSDYEHYDFSAQPPVALTTFYNSQRHRVTDEEVQQSRFQMPPLEEGLEELHASHIPTANPGHCITDPPSLGPQYHPRSNSESSTSSGEDYCNSPKSKLPPWNPQVFSSERSSFLEQPPNLELAGTQPAFSAGPPADDSSSTSSGEWYQNFQPPPQPPSEEQFGCPGSPSPQPDSTDNDDYDDISAA
[1]
  fraction of CD6-GFP immobilized on 10 and 100% αCD3 spots: 30%
[2]
  fold enrichment at αCD3-coated beads against fibronectin-coated beads: 3 fold
